The record followed here is the supplement of paper PMC9170038.

In this data set the test system is MS2 coat protein. In words: apparent KD of MS2 coat protein; higher = weaker reporter binding. The note with it: Eterna round: R107. The procedure, abridged: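 Titrations with SNAP-549-labelled MS2 coat protein ran in twofold steps from 0.7 or 1.5 nM to 3 µM, each step taking 0.8–1.5 h at the start and 10–20 min toward the end. The targets were designed RNA switches transcribed on-chip from Illumina sequencing clusters, held in 100 mM Tris-HCl pH 7.5, 80 mM KCl, 4 mM MgCl2, without or with constant ligand. Apparent KD was taken per design as the median of normalised cluster binding-curve fits.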

The mark [1] stands for this setting: input ligand: theophylline 20 uM.
[2] abbreviates: input ligand: tryptophan 2.4 mM.
[3] abbreviates: input ligand: theophylline 2 mM.

Take “GAGCUGAUGUAGGCCGGAUAUCCGGGAGAUACCAGUACAGAAAUGUACCCUUGGCAGCUCUUUCCUACAUGAGGAUCACCCAUGU [Ex Theophylline A 28]”: the “apparent KD of MS2 coat protein” value (input ligand: arginine 13.2 mM) was 17 nM, the “apparent KD of MS2 coat protein” value under setting [1] came to 21.7 nM and the “apparent KD of MS2 coat protein” value under setting [2] is 17.8 nM.

Consider “GAUAUGUAUCGAAGGAGCGGCCCUUGAUCCUCAUGAGACAUGAGGAUCACCCAUGUCUCGGGCCAGGUAGGUCGCGAUAUAUAUC [Astros-omei-mod3]”, for which the “apparent KD of MS2 coat protein” value was determined as 24.9 nM (input ligand: arginine 13.2 mM); 18.4 nM (input ligand: none); 24.3 nM under setting [1]; 24.7 nM under setting [3]; 21.8 nM under setting [2].

As for “GAUCGAUCAUAGUACGAUCGUUUUGUGGAAGGAGCGCAGAGGACUGCAGGUAGGUCGCCACAUGAGGAUCACCCAUGUCAGGAUU [XARG-A 24]”, the “apparent KD of MS2 coat protein” value runs as follows: (input ligand: arginine 13.2 mM) 99.9 nM; (input ligand: none) 61.5 nM; under setting [1], 62.5 nM; under setting [3], 122 nM; under setting [2], 32.8 nM.

In the case of “GAUGAACUAUUUGAUACCAGACUACAUGAGGAUCACCCAUGUGAGUUUCCUCCUCUGCCAGUCCCUUGGCAGCAAAUAGUUUAUC [XTheo B #7]”, the “apparent KD of MS2 coat protein” value (input ligand: arginine 13.2 mM) came to 57.6 nM, the “apparent KD of MS2 coat protein” value under setting [1] worked out at 96.9 nM and the “apparent KD of MS2 coat protein” value under setting [2] amounted to 42.3 nM.

Regarding “GAUGAACUAUUUGAUACCAGACUACAUGAGGAUCACCCAUGUGAGUUUCGUCCUCUGCCAGUCCCUUGGCAGCAAAUAGUUUAUC [XTheo B #8]”, the “apparent KD of MS2 coat protein” value was determined as 15.8 nM (input ligand: arginine 13.2 mM), 36.7 nM under setting [1] and 14.3 nM under setting [2].

For the sequence “GAUGAACUAUUUGAUACCAGACUACAUGAGGAUCACCCAUGUGUGUUUAUACUUCAGUCAGUCCCUUGGCAGCAAAUAGUUUAUC [XTheo B #3]”, the “apparent KD of MS2 coat protein” value (input ligand: arginine 13.2 mM) was 94.8 nM, the “apparent KD of MS2 coat protein” value under setting [1] stood at 183 nM and the “apparent KD of MS2 coat protein” value under setting [2] is 158 nM.

Consider “GAUGAUAUUGCAGAUACCAGACACAUGAGGAUCACCCAUGUCGUUGGGUAGCUGGGUCGUGUCCCUUGGCAGCUGCGAUAUCAUC [#05 Exclusion-TheophyllineB]”, for which the “apparent KD of MS2 coat protein” value is, setting by setting: (input ligand: arginine 13.2 mM) 19.8 nM; under setting [1], 48.2 nM; under setting [2], 24.5 nM.

Turning to “GAUGAUAUUGCAGAUACCAGACACAUGAGGAUCACCCAUGUCUCUGAGAUGAAGGAUCGUGUCCCUUGGCAGCUGCGAUAUCAUC [Bulgaria]”, the “apparent KD of MS2 coat protein” value (input ligand: arginine 13.2 mM) worked out at 25.1 nM, the “apparent KD of MS2 coat protein” value under setting [1] is 72.9 nM and the “apparent KD of MS2 coat protein” value under setting [2] was 30.3 nM.

As to “GAUUACAUGAGGAUCACCCAUGUAACUGAAGGAGCGGUAAUAAAGCCAGGUAGGUCGCAGAACGACAUGUGGUUCAUCCAUGUAA [#15 Exclusion - Arginine A]”, the “apparent KD of MS2 coat protein” value was 14.3 nM (input ligand: arginine 13.2 mM); 39.1 nM (input ligand: none); 46.9 nM under setting [1]; 35.5 nM under setting [3]; 30.4 nM under setting [2].

As for “GAUUCGCAGUCGGCCGCCACUAACAUGAGCUGCUAGUUAUUAUCACAUGAGGAUCACCCAUGUCUUAGGACCGGGACAACCUGUU [theeternabot_sameState_MS2_Trp_B_26]”, the “apparent KD of MS2 coat protein” value (input ligand: arginine 13.2 mM) was 48.3 nM, the “apparent KD of MS2 coat protein” value under setting [1] stood at 79.1 nM and the “apparent KD of MS2 coat protein” value under setting [3] turned out to be 85.3 nM.

With “GCACGACAUGAGGAUCACCCAUGUGCAGAUACCAGUAGGAUAUCCUACCCUUGGCAGCUGAGUAGAUCUGGAGGACUAUAGGUAA [Same State Theophylline A GF9]”, the “apparent KD of MS2 coat protein” value reads like this: (input ligand: arginine 13.2 mM) 15.5 nM; (input ligand: none) 17.9 nM; under setting [1], 23 nM; under setting [3], 21.2 nM; under setting [2], 18.3 nM.

As to “GCACUACAUGAGGAUCACCCAUGUGCAGAUACCAGAGGUGUAUGCCUCCCUUGGCAGCUGAGUAGCUCUGGAGGCCUAUUGGUUU [Same State Theophylline A GF15]”, the “apparent KD of MS2 coat protein” value was found to be 15.7 nM (input ligand: arginine 13.2 mM), 20 nM under setting [1] and 16.8 nM under setting [2].

Consider “GCACUACAUGAGGAUCACCCAUGUGCAGAUACCAGAGGUGUAUGCCUCCCUUGGCAGCUGCGUCGCUCUGGAAGCCUAUUGGUUU [Same State Theophylline A GF16]”, for which the “apparent KD of MS2 coat protein” value by setting is: (input ligand: arginine 13.2 mM) 15.8 nM; under setting [1], 25.5 nM; under setting [2], 18.4 nM.

In the case of “GCAUCCUAGUCGGCCGCCACUGACAUGAGGAUCACCCAUGUACAUGAGGAUCACCCAUGUUGUAACAGGACCGGGACUAGGAUGC [SS Tryp B #18]”, the “apparent KD of MS2 coat protein” value reads like this: (input ligand: arginine 13.2 mM) 69.3 nM; under setting [1], 112 nM; under setting [3], 141 nM.

As for “GCAUCCUAGUCGGCCGCCACUGACAUGAGGAUCACCCAUGUACAUGAGGAUCACCCAUGUUGUAGCAGGACCGGGACUAGGAUGC [SS Tryp B #17]”, the “apparent KD of MS2 coat protein” value is, setting by setting: (input ligand: arginine 13.2 mM) 176 nM; (input ligand: none) 259 nM; under setting [1], 277 nM; under setting [3], 295 nM; under setting [2], 75.6 nM.

In the case of “GCAUCCUAGUCGGCCGCCACUGCAUGUAGUUUUGCUACAUGGAAACAUGAGGAUCACCCAUGUAGCAGGACCGGGACUAGGAUGC [(Trp1)-(TM)''-(TM)'-(Ms2)-(Trp2)_Design7]”, the “apparent KD of MS2 coat protein” value reads like this: (input ligand: arginine 13.2 mM) 30.7 nM; under setting [1], 36.2 nM; under setting [3], 36 nM.

As to “GCAUCCUAGUCGGCCGCCACUGGUAUGAACACCUUCACCCGUGUGCACAUGAGGAUCACCCAUGUUAGGACCGGGACUAGGAUGC [SSTryp B #20]”, the “apparent KD of MS2 coat protein” value (input ligand: arginine 13.2 mM) was found to be 10 nM, the “apparent KD of MS2 coat protein” value under setting [1] came out at 11.2 nM and the “apparent KD of MS2 coat protein” value under setting [3] is 9.67 nM.

Regarding “GCCAAAAUACCCGAUACCAGUAUUAAUAGCACAACCUCACACAUGAGGAUCACCCAUGUAUACCCUUGGCAGCGGCCUAACAUAA [theeternabot_exclusion_MS2_Theo_B_49]”, the “apparent KD of MS2 coat protein” value (input ligand: arginine 13.2 mM) was determined as 30.5 nM, the “apparent KD of MS2 coat protein” value under setting [1] amounted to 55.3 nM and the “apparent KD of MS2 coat protein” value under setting [2] was found to be 36.9 nM.

As for “GCGGUGGGUCAAAAGUAAUAGAAUUCUGAAGGAGCGUGAUGAAACACAGGUAGGUCGCAGGAACAUGAGGAUCACCCAUGUACGG [Same State Arginine A GF21]”, the “apparent KD of MS2 coat protein” value by setting is: (input ligand: arginine 13.2 mM) 34.4 nM; (input ligand: none) 34 nM; under setting [1], 49 nM; under setting [3], 37.5 nM; under setting [2], 35.7 nM.

Regarding “GCUAGCCGAAAGGCUAGCAGCGCUACAGAAGGAGCGUGCGAAAGCACAGGUAGGUCGCUGAACAUGAGCAUCAGCCAUGUUGCGC [SSAA - Alter Amptam #2 V2+NP]”, the “apparent KD of MS2 coat protein” value (input ligand: arginine 13.2 mM) is 14.8 nM; the “apparent KD of MS2 coat protein” value (input ligand: none) is 12.2 nM; the “apparent KD of MS2 coat protein” value under setting [1] is 18.5 nM; the “apparent KD of MS2 coat protein” value under setting [3] worked out at 18.6 nM; the “apparent KD of MS2 coat protein” value under setting [2] was 11.7 nM.

As to “GCUAGGUCAUCGGCCGCCACUAUUAGUGGUUCGAACAUGAGGAUCACCCAUGUGCCACAUGCGCAUAGGACCGGGAUGACCUAGC [SSTB NP+V+V2 #8]”, the “apparent KD of MS2 coat protein” value runs as follows: (input ligand: arginine 13.2 mM) 11.8 nM; under setting [1], 18.2 nM; under setting [3], 13.7 nM.

As for “GCUAGGUCUACGGCCGCCACUAGACGUGGGUAAAACAUGAGGAUCACCCAUGUGCUACGGGCGAAUAGGACCGGGUAGACCUAGC [SSTB NP+V+V2 #15 +-Same Structure]”, the “apparent KD of MS2 coat protein” value (input ligand: arginine 13.2 mM) stood at 60.1 nM; the “apparent KD of MS2 coat protein” value (input ligand: none) was 368 nM; the “apparent KD of MS2 coat protein” value under setting [1] worked out at 529 nM; the “apparent KD of MS2 coat protein” value under setting [3] turned out to be 711 nM; the “apparent KD of MS2 coat protein” value under setting [2] came out at 85.4 nM.

Turning to “GCUAGUGGCAGAAGGAGCGACAUUAAAAGUGGUCGAUACAUGAGGAUCACCCAUGUACUAUGUCAGGUAGGUCGCUGCCACUAGC [EAB NP+V+V2 #4 +-Same Structure]”, the “apparent KD of MS2 coat protein” value is, setting by setting: (input ligand: arginine 13.2 mM) 27.8 nM; (input ligand: none) 30.7 nM; under setting [1], 39.1 nM; under setting [3], 36.6 nM; under setting [2], 30.7 nM.

Turning to “GCUGGGUGCGCAAGGACCUGGCGUUGCGAUACCAGCACGGUAACGUGCCCUUGGCAGCGCACAUGAGGAUCACCCAUGUGGUGUU [#1 Exclusion - Theophylline A Attempt #19 (HarryS)]”, the “apparent KD of MS2 coat protein” value reads like this: (input ligand: arginine 13.2 mM) 62.8 nM; under setting [1], 360 nM; under setting [2], 221 nM.

For “GCUGUUGCGGUGAGGUAUCCGGCUGUGGAAGGAGCGCGGAAGGCCGCAGGUAGGUCGCCACAUGAGGAUCACCCAUGUCGAUAUA [Aninati]”, the “apparent KD of MS2 coat protein” value (input ligand: arginine 13.2 mM) was found to be 48.7 nM; the “apparent KD of MS2 coat protein” value (input ligand: none) turned out to be 16.9 nM; the “apparent KD of MS2 coat protein” value under setting [1] was found to be 80.6 nM; the “apparent KD of MS2 coat protein” value under setting [3] stood at 28.3 nM; the “apparent KD of MS2 coat protein” value under setting [2] was determined as 16.8 nM.

Turning to “GCUUGGGUGGCACAGCCCUGGCAGUGCGAUACCAGCACGGUAACGUGCCCUUGGCAGCGCACAUGAGGAUCACCCAUGUGGUGCG [#1 Exclusion - Theophylline A Attempt #25 (HarryS)]”, the “apparent KD of MS2 coat protein” value reads like this: (input ligand: arginine 13.2 mM) 28.7 nM; under setting [1], 197 nM; under setting [2], 62.6 nM.
